Measured values as given in patent publication US20240092931A1 (JANUX THERAPEUTICS, published 2024).

B1: TROP2 polypeptide complex Ab-3 (bispecific antibody)
light: DIQLTQSPSSLSASVGDRVSITCKASQDVSIAVAWYQQKPGKAPKLLIYSASYRYTGVPDRFSGSGSGTDFTLTISSLQPEDFAVYYCQQHYITPLTFGAGTKVEIKRTVAAPSVFIFPPSDEQLKSGTASVVCLLNNFYPREAKVQWKVDNALQSGNSQESVTEQDSKDSTYSLSSTLTLSKADYEKHKVYACEVTHQGLSSPVTKSFNRGEC
heavy: QTVVTQEPSLTVSPGGTVTLTCRSSTGAVTTSNYANWVQQKPGQAPRGLIGGTNKRAPGTPARFSGSLLGGKAALTLSGVQPEDEAEYYCALWYSNLWVFGGGTKLTVLGGGGSGGGGSGGGGSEVQLVESGGGLVQPGGSLKLSCAASGFTFNTYAMNWVRQAPGKGLEWVARIRSKYNNYATYYADSVKDRFTISRDDSKNTAYLQMNNLKTEDTAVYYCVRHGNFGNSYVSWFAYWGQGTLVTVSSGGGGSQVQLQQSGSELKKPGASVKVSCKASGYTFTNYGMNWVKQAPGQGLKWMGWINTYTGEPTYTDDFKGRFAFSLDTSVSTAYLQISSLKADDTAVYFCARGGFGSSYWYFDVWGQGSLVTVSSASTKGPSVFPLAPSSKSTSGGTAALGCLVKDYFPEPVTVSWNSGALTSGVHTFPAVLQSSGLYSLSSVVTVPSSSLGTQTYICNVNHKPSNTKVDKKVEPKSC
notes: Anti-CD3 scFv fused to the N-terminus of the anti-TROP2 Fab heavy chain
B2: TROP2 TCE polypeptide complex Ab-1 (bispecific antibody)
light: B1 light
heavy: not shown
notes: as for B1
B3: Ab-2 (bispecific antibody)
light: not shown
heavy: QVQLQQSGSELKKPGASVKVSCKASGYTFTNYGMNWVKQAPGQGLKWMGWINTYTGEPTYTDDFKGRFAFSLDTSVSTAYLQISSLKADDTAVYFCARGGFGSSYWYFDVWGQGSLVTVSSASTKGPSVFPLAPSSKSTSGGTAALGCLVKDYFPEPVTVSWNSGALTSGVHTFPAVLQSSGLYSLSSVVTVPSSSLGTQTYICNVNHKPSNTKVDKKVEPKSC
notes: Anti-CD3 scFv fused to the N-terminus of the anti-TROP2 Fab light chain

Columns and labels:
Human TROP2-Biotin [1] = target: T1, Human TROP2-Biotin (human, UniProt P09758 27-274, biotinylated (site not stated)); experiment: BLI (Octet): 10 nM TROP2-biotin loaded on sensor, Ab-3 at 6.25-50 nM, pH 7.4
T1 construct: The text calls the captured antigens 'biotinylated peptides'
T1 sequence (looked up): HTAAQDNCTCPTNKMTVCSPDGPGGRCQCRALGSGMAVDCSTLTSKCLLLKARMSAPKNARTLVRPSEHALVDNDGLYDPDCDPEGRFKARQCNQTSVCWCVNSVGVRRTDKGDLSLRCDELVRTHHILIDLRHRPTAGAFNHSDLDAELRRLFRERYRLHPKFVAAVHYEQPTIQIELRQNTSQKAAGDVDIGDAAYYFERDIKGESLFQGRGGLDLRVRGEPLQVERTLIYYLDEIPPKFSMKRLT

Human TROP2-Biotin [2] = target: T1, Human TROP2-Biotin; experiment: ELISA; 1 nM Trop2-biotin immobilized (captured on neutravidin-coated plate), Ab-3 titrated, bound complex detected with a secondary antibody, OD 450 nm
From the text: A secondary antibody was used to detect bound polypeptide complex.

Human TROP2-Biotin [3] = target: T1, Human TROP2-Biotin; experiment: BLI (Octet): 10 nM Human TROP2-Biotin loaded on sensor, Ab at 6.25-50 nM, pH 7.4
Human TROP2-Biotin [4] = target: T1, Human TROP2-Biotin; experiment: TROP2 ELISA; TROP2-biotin captured on neutravidin-coated plate, antibody titrated, detected with a secondary antibody, OD 450 nm
From the text: A secondary antibody was used to detect bound polypeptide complex. A secondary antibody was used to detect bound polypeptide complex.

Binder | Kd (Human TROP2-Biotin [1]) [nM] | koff (Human TROP2-Biotin [1]) [s⁻¹] | kon (Human TROP2-Biotin [1]) [M⁻¹ s⁻¹] | EC50 (Human TROP2-Biotin [2]) [nM] | Kd (Human TROP2-Biotin [3]) [nM] | EC50 (Human TROP2-Biotin [4]) [nM]
B1 | 1.12 | 0.000223 | 199000 | 0.17 | – | –
B2 | – | – | – | – | 0.466 | 0.08
B3 | – | – | – | – | 0.687 | 0.09
